Changes are numbered by the printed parent chain. Names may count otherwise.
Biological target: the molecule itself
Assay: native gel or EMSA; blue native PAGE (Tris-glycine buffer, 5%-20% polyacrylamide gels), 9 μg of the soluble fraction of transfected 293FT cells per lane, immunoblot with polyclonal anti-human DPD antibody; monomer to dimer

B1: DPD variant A380V (enzyme, human, UniProt Q12882 4-1025, looked up)
chain: VLSKDSADIESILALNPRTQTHATLCSTSAKKLDKKHWKRNPDKNCFNCEKLENNFDDIKHTTLGERGALREAMRCLKCADAPCQKSCPTNLDIKSFITSIANKNYYGAAKMIFSDNPLGLTCGMVCPTSDLCVGGCNLYATEEGPINIGGLQQFATEVFKAMSIPQIRNPSLPPPEKMSEAYSAKIALFGAGPASISCASFLARLGYSDITIFEKQEYVGGLSTSEIPQFRLPYDVVNFEIELMKDLGVKIICGKSLSVNEMTLSTLKEKGYKAAFIGIGLPEPNKDAIFQGLTQDQGFYTSKDFLPLVAKGSKAGMCACHSPLPSIRGVVIVLGAGDTAFDCATSALRCGARRVFIVFRKGFVNIRAVPEEMELVKEEKCEFLPFLSPRKVIVKGGRIVAMQFVRTEQDETGKWNEDEDQMVHLKADVVISAFGSVLSDPKVKEALSPIKFNRWGLPEVDPETMQTSEAWVFAGGDVVGLANTTVESVNDGKQASWYIHKYVQSQYGASVSAKPELPLFYTPIDLVDISVEMAGLKFINPFGLASATPATSTSMIRRAFEAGWGFALTKTFSLDKDIVTNVSPRIIRGTTSGPMYGPGQSSFLNIELISEKTAAYWCQSVTELKADFPDNIVIASIMCSYNKNDWTELAKKSEDSGADALELNLSCPHGMGERGMGLACGQDPELVRNICRWVRQAVQIPFFAKLTPNVTDIVSIARAAKEGGANGVTATNTVSGLMGLKSDGTPWPAVGIAKRTTYGGVSGTAIRPIALRAVTSIARALPGFPILATGGIDSAESGLQFLHSGASVLQVCSAIQNQDFTVIEDYCTGLKALLYLKSIEELQDWDGQSPATVSHQKGKPVPRIAELMDKKLPSFGPYLEQRKKIIAENKIRLKEQNVAFSPLKRNCFIPKRPIPTIKDVIGKALQYLGTFGELSNVEQVVAMIDEEMCINCGKCYMTCNDSGYQAIQFDPETHLPTITDTCTGCTLCLSVCPIVDCIKMVSRTTPYEPKRGVPLSVNPVC
notes: dihydropyrimidine dehydrogenase (DPD), human, DPYD cDNA with a variant found in Japanese individuals; made by site-directed mutagenesis of the wild-type construct; also called 1139C > T; source: 293FT cells, transfected (pcDNA3.4), soluble fraction
  stoichiometry N: 2

B2: DPD variant Q604L (enzyme, human, UniProt Q12882 4-1025, looked up)
chain: B1 chain with V377A, Q601L
notes: dihydropyrimidine dehydrogenase (DPD), human, DPYD cDNA with a variant found in Japanese individuals; made by site-directed mutagenesis of the wild-type construct; also called 1811A > T; source: 293FT cells, transfected (pcDNA3.4), soluble fraction
  stoichiometry N: 2

B3: DPD variant V732I (enzyme, human, UniProt Q12882 4-1025, looked up)
chain: B1 chain with V377A, V729I
notes: dihydropyrimidine dehydrogenase (DPD), human, DPYD cDNA with a variant found in Japanese individuals; made by site-directed mutagenesis of the wild-type construct; also called 2194G > A (*6); source: 293FT cells, transfected (pcDNA3.4), soluble fraction
  stoichiometry N: 2

B4: DPD variant G748D (enzyme, human, UniProt Q12882 4-1025, looked up)
chain: B1 chain with V377A, G745D
notes: dihydropyrimidine dehydrogenase (DPD), human, DPYD cDNA with a variant found in Japanese individuals; made by site-directed mutagenesis of the wild-type construct; also called 2243G > A; source: 293FT cells, transfected (pcDNA3.4), soluble fraction
  stoichiometry N: 2

B5: DPD variant N151D (enzyme, human, UniProt Q12882 4-1025, looked up)
chain: B1 chain with N148D, V377A
notes: dihydropyrimidine dehydrogenase (DPD), human, DPYD cDNA with a variant found in Japanese individuals; made by site-directed mutagenesis of the wild-type construct; also called 451A > G; source: 293FT cells, transfected (pcDNA3.4), soluble fraction
  stoichiometry N: 2

B6: DPD variant T768K (enzyme, human, UniProt Q12882 4-1025, looked up)
chain: B1 chain with V377A, T765K
notes: dihydropyrimidine dehydrogenase (DPD), human, DPYD cDNA with a variant found in Japanese individuals; made by site-directed mutagenesis of the wild-type construct; also called 2303C > A; source: 293FT cells, transfected (pcDNA3.4), soluble fraction
  stoichiometry N: 2

B7: DPD variant S939N (enzyme, human, UniProt Q12882 4-1025, looked up)
chain: B1 chain with V377A, S936N
notes: dihydropyrimidine dehydrogenase (DPD), human, DPYD cDNA with a variant found in Japanese individuals; made by site-directed mutagenesis of the wild-type construct; also called 2816G > A; source: 293FT cells, transfected (pcDNA3.4), soluble fraction
  stoichiometry N: 2

B8: DPD variant S175L (enzyme, human, UniProt Q12882 4-1025, looked up)
chain: B1 chain with S172L, V377A
notes: dihydropyrimidine dehydrogenase (DPD), human, DPYD cDNA with a variant found in Japanese individuals; made by site-directed mutagenesis of the wild-type construct; also called 524C > T; source: 293FT cells, transfected (pcDNA3.4), soluble fraction
  stoichiometry N: 2

B9: DPD variant I843T (enzyme, human, UniProt Q12882 4-1025, looked up)
chain: B1 chain with V377A, I840T
notes: dihydropyrimidine dehydrogenase (DPD), human, DPYD cDNA with a variant found in Japanese individuals; made by site-directed mutagenesis of the wild-type construct; also called 2528T > C; source: 293FT cells, transfected (pcDNA3.4), soluble fraction
  stoichiometry N: 2

B10: DPD variant C29R (enzyme, human, UniProt Q12882 4-1025, looked up)
chain: B1 chain with C26R, V377A
notes: dihydropyrimidine dehydrogenase (DPD), human, DPYD cDNA with a variant found in Japanese individuals; made by site-directed mutagenesis of the wild-type construct; also called 85T > C (*9A, *9B); source: 293FT cells, transfected (pcDNA3.4), soluble fraction
  stoichiometry N: 2

B11: DPD variant M77V (enzyme, human, UniProt Q12882 4-1025, looked up)
chain: B1 chain with M74V, V377A
notes: dihydropyrimidine dehydrogenase (DPD), human, DPYD cDNA with a variant found in Japanese individuals; made by site-directed mutagenesis of the wild-type construct; also called 229A > G; source: 293FT cells, transfected (pcDNA3.4), soluble fraction
  stoichiometry N: 2

B12: DPD variant Y109N (enzyme, human, UniProt Q12882 4-1025, looked up)
chain: B1 chain with Y106N, V377A
notes: dihydropyrimidine dehydrogenase (DPD), human, DPYD cDNA with a variant found in Japanese individuals; made by site-directed mutagenesis of the wild-type construct; also called 325T > A; source: 293FT cells, transfected (pcDNA3.4), soluble fraction
  stoichiometry N: 2

B13: DPD variant V515I (enzyme, human, UniProt Q12882 4-1025, looked up)
chain: B1 chain with V377A, V512I
notes: dihydropyrimidine dehydrogenase (DPD), human, DPYD cDNA with a variant found in Japanese individuals; made by site-directed mutagenesis of the wild-type construct; also called 1543G > A; source: 293FT cells, transfected (pcDNA3.4), soluble fraction
  stoichiometry N: 2

B14: DPD risk variant I560S (DPYD*13) (enzyme, human, UniProt Q12882 4-1025, looked up)
chain: B1 chain with V377A, I557S
notes: dihydropyrimidine dehydrogenase (DPD), human, DPYD cDNA with a risk variant reported in Caucasians; made by site-directed mutagenesis of the wild-type construct; also called c.1679T>G; 1679T > G (*13); source: 293FT cells, transfected (pcDNA3.4), soluble fraction
  stoichiometry N: 2

B15: DPD variant V826M (enzyme, human, UniProt Q12882 4-1025, looked up)
chain: B1 chain with V377A, V823M
notes: dihydropyrimidine dehydrogenase (DPD), human, DPYD cDNA with a variant found in Japanese individuals; made by site-directed mutagenesis of the wild-type construct; also called 2476G > A; source: 293FT cells, transfected (pcDNA3.4), soluble fraction
  stoichiometry N: 2

B16: DPD variant T990I (enzyme, human, UniProt Q12882 4-1025, looked up)
chain: B1 chain with V377A, T987I
notes: dihydropyrimidine dehydrogenase (DPD), human, DPYD cDNA with a variant found in Japanese individuals; made by site-directed mutagenesis of the wild-type construct; also called 2969C > T; source: 293FT cells, transfected (pcDNA3.4), soluble fraction
  stoichiometry N: 2

B17: DPD variant A191V (enzyme, human, UniProt Q12882 4-1025, looked up)
chain: B1 chain with A188V, V377A
notes: dihydropyrimidine dehydrogenase (DPD), human, DPYD cDNA with a variant found in Japanese individuals; made by site-directed mutagenesis of the wild-type construct; also called 572C > T; source: 293FT cells, transfected (pcDNA3.4), soluble fraction
  stoichiometry N: 2

B18: DPD variant I560V (enzyme, human, UniProt Q12882 4-1025, looked up)
chain: B1 chain with V377A, I557V
notes: dihydropyrimidine dehydrogenase (DPD), human, DPYD cDNA with a variant found in Japanese individuals; made by site-directed mutagenesis of the wild-type construct; also called 1678A > G; source: 293FT cells, transfected (pcDNA3.4), soluble fraction
  stoichiometry N: 2

B19: DPD variant V434L (enzyme, human, UniProt Q12882 4-1025, looked up)
chain: B1 chain with V377A, V431L
notes: dihydropyrimidine dehydrogenase (DPD), human, DPYD cDNA with a variant found in Japanese individuals; made by site-directed mutagenesis of the wild-type construct; also called 1300G > C; source: 293FT cells, transfected (pcDNA3.4), soluble fraction
  stoichiometry N: 2

B20: DPD variant V738L (enzyme, human, UniProt Q12882 4-1025, looked up)
chain: B1 chain with V377A, V735L
notes: dihydropyrimidine dehydrogenase (DPD), human, DPYD cDNA with a variant found in Japanese individuals; made by site-directed mutagenesis of the wild-type construct; also called 2212G > C; source: 293FT cells, transfected (pcDNA3.4), soluble fraction
  stoichiometry N: 2

B21: DPD variant H807R (enzyme, human, UniProt Q12882 4-1025, looked up)
chain: B1 chain with V377A, H804R
notes: dihydropyrimidine dehydrogenase (DPD), human, DPYD cDNA with a variant found in Japanese individuals; made by site-directed mutagenesis of the wild-type construct; source: 293FT cells, transfected (pcDNA3.4), soluble fraction
  stoichiometry N: 2

B22: DPD variant R592W (enzyme, human, UniProt Q12882 4-1025, looked up)
chain: B1 chain with V377A, R589W
notes: dihydropyrimidine dehydrogenase (DPD), human, DPYD cDNA with a variant found in Japanese individuals; made by site-directed mutagenesis of the wild-type construct; also called 1774C > T; source: 293FT cells, transfected (pcDNA3.4), soluble fraction
  stoichiometry N: 2

B23: DPD variant I543V (enzyme, human, UniProt Q12882 4-1025, looked up)
chain: B1 chain with V377A, I540V
notes: dihydropyrimidine dehydrogenase (DPD), human, DPYD cDNA with a variant found in Japanese individuals; made by site-directed mutagenesis of the wild-type construct; also called 1627A > G (*5); source: 293FT cells, transfected (pcDNA3.4), soluble fraction
  stoichiometry N: 2

B24: DPD variant K384E (enzyme, human, UniProt Q12882 4-1025, looked up)
chain: B1 chain with V377A, K381E
notes: dihydropyrimidine dehydrogenase (DPD), human, DPYD cDNA with a variant found in Japanese individuals; made by site-directed mutagenesis of the wild-type construct; also called 1150A > G; source: 293FT cells, transfected (pcDNA3.4), soluble fraction
  stoichiometry N: 2

B25: DPD variant I528V (enzyme, human, UniProt Q12882 4-1025, looked up)
chain: B1 chain with V377A, I525V
notes: dihydropyrimidine dehydrogenase (DPD), human, DPYD cDNA with a variant found in Japanese individuals; made by site-directed mutagenesis of the wild-type construct; also called 1582A > G; source: 293FT cells, transfected (pcDNA3.4), soluble fraction
  stoichiometry N: 2

B26: DPD variant R886H (enzyme, human, UniProt Q12882 4-1025, looked up)
chain: B1 chain with V377A, R883H
notes: dihydropyrimidine dehydrogenase (DPD), human, DPYD cDNA with a variant found in Japanese individuals; made by site-directed mutagenesis of the wild-type construct; also called 2657G > A (*9B); source: 293FT cells, transfected (pcDNA3.4), soluble fraction
  stoichiometry N: 2

B27: DPD variant F438V (enzyme, human, UniProt Q12882 4-1025, looked up)
chain: B1 chain with V377A, F435V
notes: dihydropyrimidine dehydrogenase (DPD), human, DPYD cDNA with a variant found in Japanese individuals; made by site-directed mutagenesis of the wild-type construct; also called 1312T > G; source: 293FT cells, transfected (pcDNA3.4), soluble fraction
  stoichiometry N: 2

B28: DPD risk variant D949V (enzyme, human, UniProt Q12882 4-1025, looked up)
chain: B1 chain with V377A, D946V
notes: dihydropyrimidine dehydrogenase (DPD), human, DPYD cDNA with a risk variant reported in Caucasians; made by site-directed mutagenesis of the wild-type construct; also called c.2846A>T; 2846A > T; source: 293FT cells, transfected (pcDNA3.4), soluble fraction
  stoichiometry N: 2

B29: DPD variant F524L (enzyme, human, UniProt Q12882 4-1025, looked up)
chain: B1 chain with V377A, F521L
notes: dihydropyrimidine dehydrogenase (DPD), human, DPYD cDNA with a variant found in Japanese individuals; made by site-directed mutagenesis of the wild-type construct; also called 1572T > G; source: 293FT cells, transfected (pcDNA3.4), soluble fraction
  stoichiometry N: 2

B30: DPD variant M166V (enzyme, human, UniProt Q12882 4-1025, looked up)
chain: B1 chain with M163V, V377A
notes: dihydropyrimidine dehydrogenase (DPD), human, DPYD cDNA with a variant found in Japanese individuals; made by site-directed mutagenesis of the wild-type construct; also called 496A > G; source: 293FT cells, transfected (pcDNA3.4), soluble fraction
  stoichiometry N: 2

B31: DPD variant N893S (enzyme, human, UniProt Q12882 4-1025, looked up)
chain: B1 chain with V377A, N890S
notes: dihydropyrimidine dehydrogenase (DPD), human, DPYD cDNA with a variant found in Japanese individuals; made by site-directed mutagenesis of the wild-type construct; also called 2678A > G; source: 293FT cells, transfected (pcDNA3.4), soluble fraction
  stoichiometry N: 2
